In patent US20240101647A1 (published 2024):

Molecular target: monomeric human Fc-fused SARS-CoV-2_RBD-SD1 (UniProt P0DTC2 319-591)
Experiment: BLI

B1: VHH3.89 (VHH)
VHH: QVQLQESGGGLVQPGGSLRLSCAASGFTLDYYAIGWFREVPGKEREGLSRIDSSDGSTYYADSVKGRFTISRDNTKNIVYLQMNNLKPEDTAVYYCATDPIIQGRNWYWTGWGQGTQVTVSS
koff: 0.0002 s⁻¹
